The target in this experiment is purified recombinant Ep-CAM produced in insect cells (UniProt P16422). In words: SPR (BIAcore), Ep-CAM coupled to CM5 chip, control antibody. In general terms: In SPR one partner is held on a chip, and binding of the other changes the refractive index at the surface.
purified recombinant Ep-CAM produced in insect cells, sequence (P16422 24-265 limits assumed): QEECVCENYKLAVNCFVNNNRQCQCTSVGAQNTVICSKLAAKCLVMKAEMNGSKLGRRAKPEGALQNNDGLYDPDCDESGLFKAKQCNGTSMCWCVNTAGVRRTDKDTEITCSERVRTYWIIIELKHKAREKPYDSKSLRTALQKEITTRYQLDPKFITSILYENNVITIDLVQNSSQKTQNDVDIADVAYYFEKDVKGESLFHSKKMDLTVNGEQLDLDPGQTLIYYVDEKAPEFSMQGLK

What is called Kd is the equilibrium constant for the complex coming apart. As for murine anti-Ep-CAM antibody 323/A3, the Kd was 0.5 nM.

Source of the values: patent US20030096225A1.
